Assay results from article PMC4892619.

Experiments:
[1] = biological target: T1, CsrA-His6 (Campylobacter jejuni 81-176) (UniProt Q0P9F1); assay: EMSA; details: 10 mM Tris-HCl pH 7.5, 10 mM MgCl2, 100 mM KCl, 32.5 ng yeast RNA, 20 mM DTT, 7.5% glycerol, 4 U RNase inhibitor, 10 ul, 30 min at 37 C; 15% native PAGE
T1 sequence: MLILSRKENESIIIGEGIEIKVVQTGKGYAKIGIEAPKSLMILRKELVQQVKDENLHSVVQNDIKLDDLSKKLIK

[2] = tested on: CsrA-His6 (Campylobacter jejuni 81-176); assay: EMSA; details: 10 mM Tris-HCl pH 7.5, 10 mM MgCl2, 100 mM KCl, 32.5 ng yeast RNA, 20 mM DTT, 7.5% glycerol, 4 U RNase inhibitor, 10 ul, 30 min at 37 C; 15% native PAGE

“GGGUAUAAAUUUUUAAAAAAAAGUAACGAUAUAGCAUUUAACAAGCUCAUGGAUGAGUUUGAAAUUAUUUAAAAGGAUUUAAA [flaA mRNA 5' end transcript]” showed a Kd [1] of 6.53 nM.

With flaA mRNA 5' end transcript the Kd [2] was 6.53 nM.
